The source of these data is paper PMC10397247.

In test [1] the target is T1, 4H949-bH.
T1 chain: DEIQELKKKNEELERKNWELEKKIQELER
Kind of test: two-hybrid library CCNG1.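 Note: natural log of median RNA to DNA barcode read ratio; higher means stronger binding.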

The target in test [2] is T2, 4H730-bH.
T2 chain: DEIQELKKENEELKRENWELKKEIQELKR
Kind of test: two-hybrid library CCNG1.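 Note: natural log of median RNA to DNA barcode read ratio; higher means stronger binding.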

Test [3] deals with T3, 4H3041-bH.
T3 chain: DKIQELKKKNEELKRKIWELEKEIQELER
In words: two-hybrid library CCNG1.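 Note: natural log of median RNA to DNA barcode read ratio; higher means stronger binding.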

The target in test [4] is T4, 4H796-bH.
T4 chain: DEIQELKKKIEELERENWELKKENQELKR
In words: two-hybrid library CCNG1.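 Note: natural log of median RNA to DNA barcode read ratio; higher means stronger binding.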

The target of test [5] is T5, 4H3364-bH.
T5 chain: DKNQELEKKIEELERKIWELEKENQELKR
Kind of test: two-hybrid library CCNG1.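 Note: natural log of median RNA to DNA barcode read ratio; higher means stronger binding.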

Test [6] has as its target T6, 4H349-bH.
T6 chain: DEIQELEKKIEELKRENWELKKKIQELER
In words: two-hybrid library CCNG1.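 Note: natural log of median RNA to DNA barcode read ratio; higher means stronger binding.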

Test [7] addresses T7, 4H3381-bH.
T7 chain: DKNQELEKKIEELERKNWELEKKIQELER
In words: two-hybrid library CCNG1.

The target in test [8] is T8, 4H932-bH.
T8 chain: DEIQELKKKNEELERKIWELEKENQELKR
In words: two-hybrid library CCNG1.

Test [9] concerns the target T9, 4H3297-bH.
T9 chain: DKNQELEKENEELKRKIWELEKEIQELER
Kind of test: two-hybrid library CCNG1.

The target in test [10] is T10, 4H56-bH.
T10 chain: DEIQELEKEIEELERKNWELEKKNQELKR
Kind of test: two-hybrid library CCNG1.

For test [11], the target named is T11, P9.
T11 chain: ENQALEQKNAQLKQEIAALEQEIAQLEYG
In words: two-hybrid library CC1. The following applies: mean of both orientations.

For test [12], the target named is T12, P8.
T12 chain: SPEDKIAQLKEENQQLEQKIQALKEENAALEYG
In words: two-hybrid library CC1. The settings on record: mean of both orientations.

Test [13] deals with T13, P6mS.
T13 chain: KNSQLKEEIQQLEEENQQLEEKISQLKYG
Kind of test: two-hybrid library CC1.

The target of test [14] is T14, P7.
T14 chain: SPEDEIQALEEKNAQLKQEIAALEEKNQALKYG
Kind of test: two-hybrid library CC1. The settings on record: mean of both orientations.

The target of test [15] is T15, P8mS.
T15 chain: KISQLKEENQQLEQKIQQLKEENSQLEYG
In words: two-hybrid library CC1. The settings on record: mean of both orientations.

Test [16] has as its target T16, P7mS.
T16 chain: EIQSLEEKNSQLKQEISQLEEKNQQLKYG
In words: two-hybrid library CC1. The settings on record: mean of both orientations.

Test [17] has as its target T17, O9.
T17 chain: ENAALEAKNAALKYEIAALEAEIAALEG
In words: two-hybrid library CC0. The settings on record: mean of both orientations.

Test [18] concerns the target T18, O8.
T18 chain: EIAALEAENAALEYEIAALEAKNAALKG
In words: two-hybrid library CC0. The settings on record: mean of both orientations.

Test [19] addresses T19, P7-AA.
T19 chain: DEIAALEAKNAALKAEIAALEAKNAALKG
In words: two-hybrid library CCmax. The settings on record: mean of both orientations.

The target of test [20] is T20, P3-AA.
T20 chain: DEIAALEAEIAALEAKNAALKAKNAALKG
In words: two-hybrid library CCmax. The settings on record: mean of both orientations.

Test [21] addresses T21, P9-AA.
T21 chain: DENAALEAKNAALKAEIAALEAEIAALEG
Kind of test: two-hybrid library CCmax. The settings on record: mean of both orientations.

Test [22] addresses T22, P1-AA.
T22 chain: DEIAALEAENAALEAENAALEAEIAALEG
Kind of test: two-hybrid library CCmax. The settings on record: mean of both orientations.

Test [23] concerns the target T23, P8-AA.
T23 chain: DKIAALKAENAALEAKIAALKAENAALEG
Kind of test: two-hybrid library CCmax. The settings on record: mean of both orientations.

In test [24] the target is GCN2_T. In words: two-hybrid library CCmax.
Test [25] deals with T24, P4-AA.
T24 chain: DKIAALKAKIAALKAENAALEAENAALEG
In words: two-hybrid library CCmax. The following applies: mean of both orientations.

The target of test [26] is T25, P12-AA.
T25 chain: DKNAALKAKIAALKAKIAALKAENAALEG
Kind of test: two-hybrid library CCmax. The following applies: mean of both orientations.

The target in test [27] is T26, P2-AA.
T26 chain: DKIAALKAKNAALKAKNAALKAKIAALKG
Kind of test: two-hybrid library CCmax. The settings on record: mean of both orientations.

In test [28] the target is T27, P11-AA.
T27 chain: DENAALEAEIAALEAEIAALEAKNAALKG
In words: two-hybrid library CCmax. The following applies: mean of both orientations.

In test [29] the target is T28, P10-AA.
T28 chain: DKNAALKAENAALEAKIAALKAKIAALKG
Kind of test: two-hybrid library CCmax. The settings on record: mean of both orientations.

Test [30] deals with T29, AP8-AA.
T29 chain: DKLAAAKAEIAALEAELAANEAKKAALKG
In words: two-hybrid library CCmax.

As for DKIQELKKKNEELKRKIWELEKEIQELER [4H3041-bH], the interaction score in test [1] is -0.161; in test [2] it was -0.877; in test [3], 0.721; in test [4], -0.497; in test [5], -1.08; in [6], -0.833. Also, the interaction score in [7] was -0.693; in [8] it was -0.092; in test [9] it was 0.592; in [10], 0.679.
For the molecule KNSQLKEEIQQLEEENQQLEEKISQLKYG [P6mS], the interaction score was -2.37 in [11]; -2.63 in test [12]; -2.84 in test [13]; -2.01 in test [14]; -2.85 in test [15]; -2.67 in test [16].
EIAALEAENAALEYEIAALEAKNAALKG [O8]: the interaction score in test [17] was -2.53; in [18] it was -2.62.
For the molecule DKLAAAKAEIAALEAELAANEAKKAALKG [AP8-AA], the interaction score in test [19] is -1.21; in test [20], -1.35; in [21], -0.718; in test [22], -1.78; in test [23], -1.39; in [24], -1.88. Besides, the interaction score is -1.17 in [25]; -0.366 in test [26]; -1.71 in test [27]; -1.41 in test [28]; -0.57 in [29]; -1.3 in test [30].
